From article PMC8517440, “Structural and Catalytic Characterization of TsBGL, a β-Glucosidase From Thermofilum sp. ex4484_79” (Frontiers in Microbiology, 2021)

What was measured:
purified protein [1] = substrate: O=[N+]([O-])c1ccc(O[C@@H]2O[C@H](CO)[C@@H](O)[C@H](O)[C@H]2O)cc1; assay: purified protein; assay type: biochemical, Thermofilum sp. ex4484_79; conditions: pH 5.0, 90°C, 0.1-6.0 mM substrate, kcat printed 135.1 in Table 2
purified protein [2] = substrate: O=[N+]([O-])c1ccc(O[C@@H]2O[C@H](CO)[C@H](O)[C@H](O)[C@H]2O)cc1; assay: purified protein; assay type: biochemical, Thermofilum sp. ex4484_79; conditions: pH 5.0, 90°C, table header prints mm^-1, text prints 1.05 mm

B1: TsBGL (Thermofilum sp. ex4484_79) (protein)
chain: MPFPEKFFWGASSSGFQFEMGDPEGKSIDPNTDWFKWVHDETNIRRGVVSGDLPEHGINYWDLFRSDHELAASIGMNAYRIGIEWSRIFPKPTLDVRVGIELDPEGYITRVEVDDKAIEELDLLANKEAVSRYREIILDLRDRGLKVFVCLNHFTLPLWIHDPIACRDTKLKRGPKGWVDKTTILEFAKYSAYMAWSLGNIVDYWVTFNEPMVVTEAGYFQPEVGFPPGLRNISAFKTACLNIANAHVVAYDLIKKYDKVRADDDSPSAAYVGIVHNIVPIKPYSERKLDLKAADLMNYIHNKWILEFIVRGKIDRSLVGREKYLIDKFKDKLDWLGVNYYTRIVLKGKWVPPLISPVPVIPDIVKGYGFNCTPGGRSLDGMPVSDFGWEVYPQGLSDALDIASEYGKPLIVTENGIADSEDNIRPYFLVSHLKVLEEYVEKKKNVYGYLHWALTDNYEWAQGFKMRFGLTDVDLETKERKPRESSEVFKIIASEKTVPEELVEKYPKPIF
notes: synthetic gene in E. coli BL21(DE3) pLysS; N-terminal His6-SUMO tag cut with Ulp1; check)
B1 gave a Km (purified protein [1]) of 617 µM, a kcat (purified protein [1]) of 136.05 s⁻¹ and a Km (purified protein [2]) of 1054 µM. It also gave a kcat (purified protein [2]) of 124 s⁻¹ and a kcat/Km (purified protein [2]) of 118000 M⁻¹ s⁻¹.
